From the DeepSol protein solubility set

Experiment: soluble on expression in E. coli; label from the status in PepcDB or PDB records

| Sequence | soluble on expression in E. coli |
| --- | --- |
| MSYYHHHHHHDYDIPTTENLYFQGAMGSMNTRNTRSKQRAPCGVSSSVKPRLDLIEQAPNPVYDRHPACITLPERTCRHPLTDLEANEQLGRCEDSVKNRFDRVIPFLQVVAGIPLGLDHVTRVQELAQSSLGHTLPEELLKDNWISGHNLKGIFGYATAKALTAATEQFSRKIMSEKDDSASAIGFFLDCGFHAVDISPCADGRLKGLLPYILRLPLTAFTYRKAYAGSMFDIEDDLAQWEKNELRRYREGVPNTADQPTRYLKIAVYHFSTSDPTHSGCAAHGSNDRAALEAALTQLMKFREAVENAHCCGASIDILLIGVDTDTDAIRVHIPDSKGFLNPYRYVDNTVTYAQTLHLAPDEARVIIHEAILNANRSDGWAKGNGVASEGMRRFIGQLLINNLSQIDYVVNRHGGRYPPNDIGHAERYISVGDGFDEVQIRNLAYYAHLDTVEENAIDVDVGITIFTKLNLSRGLPIPIAIHYRYDPNVPGSRERTVVKARRIYNAIKERFSSLDEQNLLQFRLSVQAQDIGSPIEEVASA | soluble |
| MSLTTVMSGVTTLMRAPIGSIRESEGGRDFIRNVFEESVQIMRVLGAPVKENITEEHMKTMDKISYNMKSSMQRDMEKGSSVEGTHLQGYLLDVAKQFSIEAPLLGAVYQNLKVYEEMTLNRSAIELDEGHHHHHH | soluble |
| MDYRIRTSRDEDAALLPAIERSAGESFRLLPELAWIADAGVAGVDFHRRLIERGSHWLAEDADGQPVGFLAAERCADELHIAELSIAQAHQQQGLGRRLLERAVTYAHASHCRALTLTTFCDVPWNAPFYARLGFQRLTWQEAGERLRAILGHEQEIGFAADSRCAMRLVL | not soluble |
| MAHHHHHHMPLPPVEDAPNSMARRHYLVERNRLRVKKYEPTRQAFEEETVKLSKQRVEQRVAMLNSWKSSVPLHTDTTRPLPGAARRQKEKDEPAAKHINLQILDEDAALKRERRALLRADILQQKKDREEYLAKWRANEKAYDSALLATNAEFARQMQEQERQAAVATKQYMDMMRASNLKELEAKRAKQREKEEADVAALRTMQENLRLKMEADERRAKDMKRLMQIENEENHSLFKKKQAEDKAREDAWIRTMMEHNAALAERERREAEQKRQQFKADFEDTIAKQKEFRRTHDYDEPQELIRKRNEEAAASAVLIRQEERLRNNEQRKQYREELMKQMREKYEWQLSHLDGV | not soluble |
| SEAVGVAPAPAGVPEKKLLEVKESRKAAPAAPSTSMAAKWAMKKKLVGGDAGYVLEDVPHLTDYLPELPTYPNPLQDNPAYSVVKQYFVNTDDTVTQKIVVHKTSARGTHFRRAGPRQRVYFQSDEVNAAIVTCGGLCPGLNTVIRELVCGLYDMYGVTSVVGIEGGYKGFYSRNTVALTPKSVNDIHKRGGTVLGTSRGGHDTGKIVDSIKDRGINQVYIIGGDGTQKGASVIYEEVRRRGLKCSVVGVPKTIDNDIAVIDKSFGFDTAVEEAQRAINAAHVEAESAENGIGVVKLMGRNSGFIAMYATLASRDVDCCLIPESPFYLEGKGGLLEFIEKRLKDNGHMVIVVAEGAGQDLIAKSMNFVDTQDASGNKLLLDVGLWLSQKIKDHFKKKRNFPITLKYIDPTYMIRAVRSNASDNVYCTLLAHSALHGAMAGYTGFTVAPVNGRHAYIPFYRITEKQNKVVITDRMWARVLCSTNQPCFLSHEDVEHLKHDDDEHHLHNTQLLEGESSPVKDSSKCNGTAAPV | soluble |
| MDWYEPGEDTYTLMDALEREGLEMKIVLDLGTSTGVITEQLRKRNTVVSTDLNIRALESHRGGNLVRADLLCSINQESVDVVVFNPPYVPDTDDPIIGGGYLGREVIDRFVDAVTVGMLYLLVIEANRPKEVLARLEERGYGTRILKVRKILGETVYIIKGEKS | not soluble |
| TLTDTMNDLAVRMAESFQAEEVGFFHIDHFENLTLLPGSTAFFKEAKPSDFYNELKEKLYEGEKGVFIGNGQSVFGKAGYGSLMAAPMIQNDRLLGFAVLLKQELYAFTFEMYKLFQALIHHATLAVTNSMLRDRLEHLVKTDQL | not soluble |
| MNKTPRVGFVSLGCPKAASDSEQILTRLRAEGYEIAPSYDGADLVVVNTCGFIDSAVEESLDAIGEALNENGKVIVTGCLGAKGDVVRDVHPSVLAVTGPHATEEVMSAVHTHLPKPHDPFVDLVPDIGVRLTPKHYAYLKISEGCNHRCTFCIIPSMRGDLESRPIHDVLREAESLAKAGVKEILVISQDTSAYGVDTKYKLGFHNGRPVKTRMTELCEELGRHGIWVRLHYVYPYPHVDEVIPLMRDGKILPYLDIPFQHASQKVLKLMKRPANSDNVLARIKKWREICPELVIRSTFIVGFPGETEEDFEELLAFIREAELDRVGCFTYSPVEGATANELPNPVPEDVKEARKERFMAVQAEISARRLERRVGQTLQVLVDEIDDEGTAVCRSYADAPEIDGLVFVEDAAGMQPGEFYQVEIVDCSEHDLWGERRLEHHHHHH | soluble |
| MDDLQADDIKTSDENSAMVLLVDDQAMIGEAVRRGLAGHESIDFHFCADPHQAIAQAVQIKPTVILQDLVMPGLDGLTLVREYRSNPLTRDIPIIVLSTKEDPLIKSAAFAAGANDYLVKLPDNIELVARIRYHSRSYMTLLQRDEAYRALRVSQQQLLDTNLVLQRLMNSDGLTGLSNRRHFDEYLELEWRRATRDQAQLSLLMIDVDYFKAYNDNFGHLEGDEALRQVAKAIRNSCSRPSDLPARYGGEEFAMVLPNTSPGGARLLAEKLRQSVAGMNIPHIAPVPGSSLTVSIGVATVTPQVGQHSRQLILDADKGLYLAKNNGRNQVAAG | soluble |
| MDAGLDARGKGWARAITRLCDEHLYYLMLYFRWFDEDSWRVLKPVFFGSLPFGVRDAVAWAMRRKVRATLRAQGLGVHGRDELLAFARDDLDALDGLLGQVPYYGGEHPCSADAAAYGILANLIEATLDTPLSHVARGYPRLVAYCERMRERVWSELEHHHHHH | not soluble |
| MTNQLPKISEAELEIMKVLWLKSPQTANEIIEELEDPMDWKPKTIRTLINRLVQKEAVSYHQDKGRMYAYYPLVSQDNYLQVETKSLLKRFCGAAFKPLLVNFLKEEKLSSEDINELKRLLDEKTEENKRKD | not soluble |
| PKPLVILAHEIYGVNSHMKKMGRLIKMAGYDVLTPNLLGEDEVYTLKEEKTAYEQFTKHERLKTGETIIQPVIRQNAGRHIFVIGFSVGATIAWKCSSMPEVSGSVCYYGSRIRDSLHHMPACPVLLFFPNYEPSFDVALLIKKLREKQHTHLEIYQFDALHASP | not soluble |
| MPMTDLPSAVTNERTEQTNTTNEQQESKGFDYLIVGAGFAGSVLAERLASSGQRVLIVDRRPHIGGNAYDCYDDAGVLIHPYGPHIFHTNSKDVFEYLSRFTEWRPYQHRVLASVDGQLLPIPINLDTVNRLYGLNLTSFQVEEFFASVAEKVEQVRTSEDVVVSKVGRDLYNKFFRGYTRKQWGLDPSELDASVTARVPTRTNRDNRYFADTYQAMPLHGYTRMFQNMLSSPNIKVMLNTDYREIADFIPFQHMIYTGPVDAFFDFCYGKLPYRSLEFRHETHDTEQLLPTGTVNYPNDYAYTRVSEFKHITGQRHHQTSVVYEYPRAEGDPYYPVPRPENAELYKKYEALADAAQDVTFVGRLATYRYYNMDQVVAQALATFRRLQGQPEQGNAE | soluble |
| MSLRPVKLAALLPLTGPFAFAGNAGREGFVDGVDYVNEVLGGIAGRKLELIVEDTGYDVAKGTAAFNRVLSRERPDELLFVYGDSTGLSKALAPEIARIGLPYSATSFANELADPEKYPTIFVFGPTYNDMMEALLRQIRLQKGKARIALVYSNTEFGRDPIPYVKERAKALGMEVVHEEVTPPAFTDATPVVLNLRRANPDFVLLQGYALSAEPLILRAAREQGLRAQFMGTYYSAELVLIQRAGPAAEGFTVTYHNPYWYDTLVPAVDEMRKFRQRKGRDSSYRPTYYMGSLAVALGVAEAMRRAAQAGKLTRAGVVEYLEKIGDYNAMGLVRGYQFVNHRIPYTKLYRASVKDGRFNAITDWLKLAEGHHHHHH | soluble |
| MKALTTRQQEVYDLVRDHLAQTGMPPTRAEIAQRLGFRSPNAAEEHLKALARKGVIEIVSGASRGIRLLMEEEEGLPLIGRVAAGEPLLAQQHIEGHYKVDPSLFKPGADFLLRVNGMSMRDIGILDGDLLAVHKTQDVRNGQVVVARIDDEVTVKRLKKQGNIVHLLPENSEFQPIVVDLREQSFTIEGLAVGVIRNGDWI | not soluble |
| MTVVKEELKEALEMLKNTGVRITPQRHAILEYLVESMTHPTADDIYKALEGKFPNMSVATVYNNLRVFKEVGLVKELTYGDASSRFDYVTSQHYHVICEKCGKIVDFPYGGLEKLEEEAAKTTGFVINSHRLEIYGVCPECHKA | not soluble |
| MAHHHHHHMGTVSPARRVASPGKGKRSPSRGETPSEGRTRRAGSSPSSRPGMQTASQRAARKKEVRRLRDAELLLDEAPLSMVGERAQDALEAMLRALDIRRNASATPKKMQPVWHHVKALVVTANREGLRRAYAAFPAEEGHYFFGKALSTLEYSASTVNTAADGGEFAECPLLLSHLMEATLNNIAFQQYIAHEPPEAILKTLQRALKVQHHQAFRTLTLYNMAVAFLAARRYEDATEFVARCSQVAEVCLELEVSLTREISSLYKEYHTMVATHAIMCHHLLAGLAAWSGESDMEVYHAQLALCCATKFLCRG | not soluble |
| MRQVTIPLIQSKSMFCVIYRSSKRDQTYLYVEKKDDFSRVPEALMKGFGQPQLAMMLPLDGRKKLVNAELEKVKQALSEQGYYLQLPPPPEDLLKQHLSSVGQNTSPADR | not soluble |
| MGSSHHHHHHSSGLVPRGSSGHVGLRNLGNTCFLNAVLQCLSSTRPLRDFCLRRDFRQEVPGGGRAQELTEAFADVIGALWHPDSCEAVNPTRFRAVFQKYVPSFSGYSQQDAQEFLKLLMERLHLEINRRGRRAPPILANGPVPSPPRRGGALLEEPELSDDDRANLMWKRYLEREDSKIVDLFVGQLKSCLKCQACGYRSTTFEVFCDLSLPIPKKGFAGGKVSLRDCFNLFTKEEELESENAPVCDRCRQKTRSTKKLTVQRFPRILVLHLNRFSASRGSIKKSSVGVDFPLQRLSLGDFASDKAGSPVYQLYALCNHSGSVHYGHYTALCRCQTGWHVYNDSRVSPVSENQVASSEGYVLFYQLMQEPP | soluble |
| MSLQAVTLSVLVVEDTDCERFYITHLLRQFGWLVESRSNGKAALDYLQQNEVHILVSDWRMPEMSGIELCQIVKNNHLPPFVILLTANNQTADIVLGIEAGADDFICKPFLPELLKVRMLAAMRIVQLQHNLSRNEGHHHHHH | not soluble |
| MGSDKIHHHHHHMADKPFRLVTRSDFDGLVCATLLKELALIDEITFVHPKDMQDGQIPVTERDITTNLPYVEGVHLCFDHHLSETIRVGKKANHIIDPLAPSAARVVYNYFGGKARFPRIPDDMMDAVDKGDSAQYNMEEVLHPGGWELLNFLMDARTGLGRFREFRIPNYQLMMELIDYCRDHAIEDILDLPDVSERVDLYREHEPRFKEQLKRCSTVHGNLVVLDLRDEDPIWAGNRFMIYALYPETNISIHVLWGRERRNTVFAVGKSIFNRSSNTNIGELMLGYGGGGHHAAGTCQVDNAQAADVLARLIARITEDG | not soluble |
